Laboratory results from patent publication US10106589B2, “Compositions and methods for immunomodulation” (FUNDACIO INSTITUT D'INVESTIGACIO BIOMEDICA DE BELLVITGE …, priority 2011, dated 2018).
“Also recorded” adds a separate entry of the source.

B1: C4BP α7β0: C4BP isoform exclusively composed of 7 α-chains, purified from pooled human plasma (protein, UniProt P04003 49-597, looked up)
C4b-binding protein alpha …: NCGPPPTLSFAAPMDITLTETRFKTGTTLKYTCLPGYVRSHSTQTLTCNSDGEWVYNTFCIYKRCRHPGELRNGQVEIKTDLSFGSQIEFSCSEGFFLIGSTTSRCEVQDRGVGWSHPLPQCEIVKCKPPPDIRNGRHSGEENFYAYGFSVTYSCDPRFSLLGHASISCTVENETIGVWRPSPPTCEKITCRKPDVSHGEMVSGFGPIYNYKDTIVFKCQKGFVLRGSSVIHCDADSKWNPSPPACEPNSCINLPDIPHASWETYPRPTKEDVYVVGTVLRYRCHPGYKPTTDEPTTVICQKNLRWTPYQGCEALCCPEPKLNNGEITQHRKSRPANHCVYFYGDEISFSCHETSRFSAICQGDGTWSPRTPSCGDICNFPPKIAHGHYKQSSSYSFFKEEIIYECDKGYILVGQAKLSCSYSHWSAPAPQCKALCRKPELVNGRLSVDKDQYVEPENVTIQCDSGYGVVGPQSITCSGNRTWYPEVPKCEWETPEGCEQVLTGKRLMQCLPNPEDVKMALEVYKLSLEIEQLELQRDSARQSTLDKEL
B2: C4BP α6β0: polymeric recombinant full-length C4BP of 6 α-chains, expressed in eukaryotic cells (protein, UniProt P04003 49-597, looked up)
C4b-binding protein alpha …: NCGPPPTLSFAAPMDITLTETRFKTGTTLKYTCLPGYVRSHSTQTLTCNSDGEWVYNTFCIYKRCRHPGELRNGQVEIKTDLSFGSQIEFSCSEGFFLIGSTTSRCEVQDRGVGWSHPLPQCEIVKCKPPPDIRNGRHSGEENFYAYGFSVTYSCDPRFSLLGHASISCTVENETIGVWRPSPPTCEKITCRKPDVSHGEMVSGFGPIYNYKDTIVFKCQKGFVLRGSSVIHCDADSKWNPSPPACEPNSCINLPDIPHASWETYPRPTKEDVYVVGTVLRYRCHPGYKPTTDEPTTVICQKNLRWTPYQGCEALCCPEPKLNNGEITQHRKSRPANHCVYFYGDEISFSCHETSRFSAICQGDGTWSPRTPSCGDICNFPPKIAHGHYKQSSSYSFFKEEIIYECDKGYILVGQAKLSCSYSHWSAPAPQCKALCRKPELVNGRLSVDKDQYVEPENVTIQCDSGYGVVGPQSITCSGNRTWYPEVPKCEWETPEGCEQVLTGKRLMQCLPNPEDVKMALEVYKLSLEIEQLELQRDSARQSTLDKEL

How the values were obtained:
human Mo-DCs [1] = test: Flow cytometry of cell surface markers on treated, LPS-matured Mo-DCs; conditions: CCP6-based peptides at 100 μM
human Mo-DCs [2] = test: Scanning electron microscopy of Mo-DC surface morphology; type: cell-based; conditions: SEM after 48 h LPS maturation
Experimental: Monocytes were seeded on glass slides covered with either poly-L-lysine (25 μg/ml) or fibronectin (42 μg/ml), cultured for 5 days in complete RPMI medium supplemented with 800 U/ml GM-CSF, 500 U/ml IL-4, and the C4BP isoforms α7β1, α7β0, or Factor H (10 μg/ml), and further stimulated with LPS for 48 hours in the same medium. The resulting DCs were fixed in 1% paraformaldehyde and 1.25% glutaraldehyde in cacodylate buffer for 2 h. Finally, the cells were post-fixed in 1% OsO4, and dehydrated with graded series of ethanol followed by acetone. After dehydration the cells were dried in a critical-point dryer and coated with gold before observation by scanning electron microscopy (Zeiss DSM940A).

human Mo-DCs [3] = test: Flow cytometry of cell surface markers on treated, LPS-matured Mo-DCs; type: cell-based; conditions: treated throughout differentiation and maturation, LPS-matured; for CD1a expression / CD80 expression / CD83 expression / CD86 expression: dose-dependent; for expression of surface markers (CD14, HLA-DR, CD40, CD80, CD83, CD86, CD1a): vs untreated mDC
Experimental: Peripheral blood mononuclear cells (PBMCs) were obtained from buffy coat preparations belonging to healthy donors from the Blood and Tissue Bank (Barcelona, Spain) after Ficoll-Paque™ density centrifugation (GE Healthcare Bio-Sciences AB; Uppsala, Sweden). Monocytes were purified by two different methods: 1) Cells were plated at 1×10^6 cells/ml in 60 mm culture plates (Corning, Spain) in RPMI without serum and allowed to adhere for 2 h at 37° C. in 5% CO2. The non-adherent cells were removed by washing in PBS. […] 2) Cells were purified using colloidal super-paramagnetic microbeads conjugated with monoclonal mouse anti-human CD14 antibodies (MACS, Miltenyi Biotec, Auburn, Calif., or EasySep® Positive Selection Cocktail, StemCell Technologies, Grenoble, France). The purity of CD14^+ cells was tested by CD14 staining and flow cytometry analysis (>90% CD14^+ cells). Monocyte-derived DCs (Mo-DCs) were generated supplementing the monocyte cultures with complete RPMI 1640 medium plus GM-CSF (800 UI/ml) and IL-4 (500 UI/ml) (both from Gentaur, Kampenhout, Belgium) at day 0 and day 3 of culture. For DC maturation, at day 5 iDCs were further stimulated for 48 h with 5 μg/ml LPS (Escherichia coli 055.B5, Sigma L2880, Copenhagen, Denmark).
Cell surface phenotypes were analyzed using the following monoclonal antibodies: FITC-conjugated anti-HLA-DR (Immu-357), FITC-conjugated anti-CD83 (HB15a), FITC-conjugated anti-CD14 (RMO52), PE-conjugated anti-CD40 (MAB89), PE-conjugated anti-CD1a (BL6), PE-conjugated anti-CD80 (MAB104), PE-conjugated anti-CD86 (HA5.2B7) (all from Beckman-Coulter), Alexa Fluor 488-conjugated anti-CCR7 (TG8/CCR7, Biolegend, San Diego, Calif.), and the respective isotype controls from the same commercial sources. After washing with PBS, cells were subsequently stained with 3 μl MoAb/10^5 cells in 100 μl of FACS buffer (PBS containing 1% BSA and 0.1% sodium azide) for 20 min at room temp. Stained cells were analysed using a FACScalibur (Becton Dickinson). Mo-DCs were gated according to forward scatter (FSC) and side scatter (SSC) parameters. The results were analysed using CellQuestPro software (Becton Dickinson).
Both the different C4BP isoforms (α7β1, α7β0 and α6β0), and Factor H were added at 2, 5 and 10 μg/ml throughout Mo-DC differentiation, maturation, or both. Namely, for the differentiation assays the proteins were added at day 0 and replenished at day 3. For the maturation assays the proteins were added at day 5, either alone or combined with LPS. Finally, for the differentiation plus maturation assays the proteins were added at days 0, 3 and 5 (at the last time point, combined with LPS).

human Mo-DCs [4] = test: Quantitative RT-PCR of CCR7, IDO, BIC-1, SOD2 in Mo-DCs; type: cell-based; conditions: RT-qPCR; pretreated, LPS-matured Mo-DCs
Experimental: Mo-DCs (10^6/condition) were harvested at day 7 and the mRNA was extracted using the RNeasy RNA Isolation kit (Qiagen) and incubated with RNase-free DNase I (Ambion, Austin, Tex.) according to the manufacturer's protocol. A two-step real-time RT-PCR technique was used to determine the relative mRNA levels of human CCR7, BIC-1, IDO and SOD2. Reverse transcription reactions were performed with 500 ng of total RNA using the Omniscript RT kit (Qiagen). Quantification of mRNA levels was performed by real-time polymerase chain reaction (PCR) with the use of the LightCycler technology (Roche Molecular Biochemicals, Indianapolis, Ind.). The following primers were used: CCR7-f (5′-TGGGCATCTGGATACTAGC-3′) (SEQ ID NO:6), CCR7-r (5′-AAGAAAGGGTTGACGCAGC-3′) (SEQ ID NO:7); IDO-f (5′-[…]-3′) (SEQ ID NO:8); IDO-r (5′-[…]-3′) (SEQ ID NO:9); BIC-1-f (5′-[…]-3′) (SEQ ID NO:10), BIC-1-r (5′-[…]-3′) (SEQ ID NO:11); SOD2-f (5′-GACAAACCTCAGCCCTAAC-3′) (SEQ ID NO:12), SOD2-r (5′-[…]-3′) (SEQ ID NO:13), yielding products of 435, 227, 296 bp, and 248 bp, respectively. These gene-specific primer pairs were designed using Oligo 4.0 and Primer 3 software packages (MBI, Cascade, Colo.) and selected to prevent primer-dimer formation.
All samples were normalized with the use of the following primer set for the constitutively expressed human cyclophilin gene: CypA-f (5′-[…]-3′) (SEQ ID NO:14) and CypA-r (5′-CACCACATGCTTGCCATCC-3′) (SEQ ID NO:15) (Pluvinet R. et al., 2004, Blood. 104: 3642-3646). All primers were purchased from Bonsai Technologies (Copenhagen, Denmark).
PCR amplifications were performed in a 20 μl volume containing 2 μl ready-to-use reaction mix, 10×DNA Master SYBR Green I (Roche Molecular Biochemicals); MgCl2 (3 mM for CCR7; 4 mM for BIC-1 and SOD2, and 5 mM for IDO); 0.15 μM of each primer; 5% dimethyl sulfoxide (DMSO); and 75 ng cDNA as template. The amplification program used an initial denaturation at 95° C. for 10 min, followed by 45 cycles: 95° C. for 1 sec; 58° C. (CCR7 and SOD2)/60° C. (BIC-1 and IDO) for 5 sec; 72° C. for 10 sec.

allogeneic CD3+ T cells = test: Mixed leukocyte reaction ([3H]-thymidine incorporation); type: cell-based, human; conditions: Mo-DCs pre-incubated and matured with LPS; DC:T 1:40, 1:80, 1:160; 5 days
Experimental: CD3^+ T cells (10^5/well) and C4BP-treated (α7β1 and α7β0), or Factor H-treated, and LPS-activated Mo-DCs were seeded in a 96-well round-bottom plate at various DC:T cell ratios (1:40, 1:80 and 1:160) and cultured in X-VIVO 15 medium (Biowittaker, Walkersville, Md.) supplemented with 100 μg/ml of streptomycin, 100 IU/ml of penicillin and 2 mM L-glutamine (all from Invitrogen) plus 2% Human AB Serum. Allospecific proliferation was measured after 5 days of incubation. At day 4, the […] [^3H]-thymidine (1 μCi/well, Perkin Elmer, Boston, Mass.) was added, followed by incubation for another 16 h. Labeled cells were then harvested onto glass-fiber filters with a Filtermate Harvester (Packard, Meriden, Conn.), and the T cell proliferation rate was determined by the amount of [^3H]-thymidine incorporation, which was measured in a TopCount NXT counter (Packard). Results are reported as the mean cpm±SD of thymidine incorporation in quadruplicate culture wells.

| Molecule | CD83 upregulation on LPS-matured Mo-DCs (human Mo-DCs [1]) | toxicity to the DCs (human Mo-DCs [1]) | surface morphology of Mo-DCs (human Mo-DCs [2]) | CD1a expression (human Mo-DCs [3]) | CD80 expression (human Mo-DCs [3]) | CD83 expression (human Mo-DCs [3]) | CD86 expression (human Mo-DCs [3]) | expression of surface markers (CD14, HLA-DR, CD40, CD80, CD83, CD86, CD1a) (human Mo-DCs [3]) | BIC-1 transcript level (human Mo-DCs [4]) | CCR7 transcript level (human Mo-DCs [4]) | IDO transcript level (human Mo-DCs [4]) | allogeneic T cell proliferation (allogeneic CD3+ T cells) |
| --- | --- | --- | --- | --- | --- | --- | --- | --- | --- | --- | --- | --- |
| PS6-04: SEQ ID NO:5 ITQHRK SRPANHSV, 14-mer CCP6-derived peptide (ITQHRKSRPANHSV; PS6-04) | comparable effect than its C4BP α6β0 counterpart |  |  |  |  |  |  |  |  |  |  |  |
| Ac-HRKSRPANHSVYFYGDEISFSSHETSRFSA-NH2 [PS6-02] | seemed to prevent CD83 upregulation | toxic |  |  |  |  |  |  |  |  |  |  |
| PS6-03: SEQ ID NO:4 EISFSSH ETSRFSAISQ GDGTWSPRTP SSG, CCP6-derived peptide (EISFSSHETSRFSAISQGDGTWSPRTPSSG; PS6-03) | seemed to prevent CD83 upregulation |  |  |  |  |  |  |  |  |  |  |  |
| B1 |  |  | absence of long dendritic projections; also recorded: reversed the “porcupine like” DC morphology | significantly down-regulated | significantly down-regulated | significantly down-regulated | significantly down-regulated | inhibit up-regulation | significantly down-regulated | significantly down-regulated | significantly down-regulated | significantly less T cell proliferation |
| B2 |  |  | reversed the “porcupine like” DC morphology | significantly down-regulated | significantly down-regulated | significantly down-regulated | significantly down-regulated | inhibit up-regulation | significantly down-regulated | significantly down-regulated | significantly down-regulated |  |
